The assay has as its target Human coagulation factor X (human). In words: SPR; human FX amine-coupled to a CMD500m chip; vector particles 1.25x10^8 to 1x10^9 physical particles per millilitre passed for 3 min at 25 μl/min; 10 mM HEPES pH 7.4, 150 mM NaCl, 5 mM CaCl2, 0.005% Tween 20; reference flow cell subtracted.

In the case of “AdGFPhCKS17, ΔE1/E3 Ad5 vector particles with CKS17 peptide in place of hexon HVR5 (from UniProt P04133 1-952; P11818 1-581) (complex)”, the percent reduction of binding against AdGFPhWt amounted to 30%.

The values are drawn from article PMC4332860.
